Data: publication PMC3050068
Values belong to the substance of their own block, whether it stands above or below them.

Legend:
[1] = system: O=C(O)[C@H]1O[C@H](OP(=O)(O)OP(=O)(O)OC[C@H]2O[C@@H](n3ccc(=O)[nH]c3=O)[C@H](O)[C@@H]2O)[C@H](O)[C@@H](O)[C@@H]1O; assay: purified protein; details: NAD+ as co-substrate, pH 8.5, 25°C, without WlbC
[2] = system: O=C(O)[C@H]1O[C@H](OP(=O)(O)OP(=O)(O)OC[C@H]2O[C@@H](n3ccc(=O)[nH]c3=O)[C@H](O)[C@@H]2O)[C@H](O)[C@@H](O)[C@@H]1O; assay: purified protein; assay type: biochemical, Chromobacterium violaceum; details: NAD+ as co-substrate, pH 8.5 (50 mM HEPPS), 25°C, without WlbC
[3] = biological target: WlbA from Chromobacterium violaceum (Chromobacterium violaceum); assay: crystal structure
[4] = biological target: WlbA from Chromobacterium violaceum (Chromobacterium violaceum); assay: AUC

Substance: B. pertussis WlbA (Bordetella pertussis Tohama I)
Km [1]: 2050 ± 210 µM
kcat [1]: 0.0021 ± 0.0001 s⁻¹
kcat/Km [1]: 1 M⁻¹ s⁻¹

Substance: C. violaceum WlbA (Chromobacterium violaceum ATCC 12472)
Km [2]: 200 ± 20 µM
kcat [2]: 0.00015 ± 0.00001 s⁻¹
kcat/Km [2]: 0.75 M⁻¹ s⁻¹

stoichiometry N [3]: 8
stoichiometry N [4]: 8
Substance: WlbA from Chromobacterium violaceum (enzyme)
